Test: soluble on expression in E. coli; label from the status in PepcDB or PDB records

Sequence | soluble on expression in E. coli
MGSDKIHHHHHHMKATSSFKGQTTGLYIVPTPIGNLEDMTYRAVRILQESDLVAAEDTRQTMKLFNHFKIETKLVSYHEHNKQVSGARLLADLHAGKQIALVSDAGMPGISDPGSDLIREAIAEDIPVIVLPGANAALTALVASGLATERFLYYGFLPRKKKERREALETVRYEKGSLIFYEAPHRLKEMLGALRDVLGDRQLTLARELTKRYEEYIRGSVTEALEWAEEEVRGEFVVIVEGSTEERPAEEEQKADPLQQIERYIEQGEKPNAALKRVAKERGLDRQELYLRYHES | not soluble
MGSDKIHHHHHHMKDEVLIYSWVGEENIGDELILKSIVRMIEKIDDRLKVNVMGTKPKVINKIHNHLGLNRISTYINWTLKSILRAILKHNIFKAILNILCSNKLIIASGGALSDWNPSSTKTIFFLIDLFYFMNRPICMMGVGAGPILHEKSKKRFYNKLKKLEVITVRDEESYELLKSIGLKNVILTSDSVFNICSIIQNKYPEKDVTEKKISFVLAKLFKDNTKELKEYKEEIIKTINRLKKENWKIKLVPFHYSEDIGFLKSINQKCNVEILNSHDMYDTIGELNNENIIVGMRYHSVIMSLVLGKKVIPLIYHPKVYSVARRFEILDIAENVGNGGNWIGSNISSERLLKNIEKLYKSDENTAKNRGKVLRIVKQNDLNNEILARFLRHSNVLEVVSYNVQRH | not soluble
MGSDKIHHHHHHMKELVNILDFLPEELGEKIKPMFRVKQIYQWIYQKYANNFSDMSSLPKDLRLELARNFHFSPVKCVKNEQSKDGSIKYLFELIDGLRVESVLLPMKEEKIDAEGKRISHARYTICVSSQVGCKSGCSFCLTAKGGLKRNLSAGEIVGQILWIKKQNNIPYERRVNIVYMGMGEPLDNLKNVSKAVKILAQNEGLAISPRRQTISTSGLAKQIKELGQMNLGVLLAISLHAVNDELRTELMPINKAYNIAAIMDAVREFPIDQRKRVMFEYLLIDGINDKLEHAKELVKLLNGIKAKVNLILFNPHEGSLYKRPSLENAIKFQDLLSNKGVTCTIRESKGLDISAACGQLKERAKEQ | not soluble
MGSDKIHHHHHHMKENIEKLFQAIAQKNPIHSKYLKKIEFSQEDEEEFDKLISYYIQDGISIKEQCDCYLLILNDTLEETKFFIENGAYRYSSFDEVKDKVYFNESYMKQYMIGLALSSFVWIAHIKVRKYFSQYLQNFTPKTTYFEIGPGHGEYFARAVKSGKFSAFYGLDISPTSCELTQKMVKQQVGGLITKCDFLCQDFFTYDFDKKADLIVIGEVLEHVEKPLEFLKRSKELLSDGGEIFATIPINAPAIDHIYLFSHPDEVKDLIEKSGLKFKAYECFMANDYSLEKALKFKNAITMAVVLNA | not soluble
MGSDKIHHHHHHMKEVAIYIYMLAVKITGCLARIFPVKQKVVLLVSFPENSTAIIKQMNEMKVTPKTVVFYDPRVDVTGFNFDFIQLKPKKIKHFISLMFHLNTAKVVITDNYFVELAGLKERKNVTCIQIWHANGALKKFGWEDKAAQKRSARDKKRFQEVYRCFSKVLVGSDEMAAIFQRSFLLEDSHMLKLGIPRTDNFFNQQQLKENAERTNTKLHLSNKKKLLYAPTFRDEELHSTTLHLDIAKMKQALGNEYQLILKLHPSISNDLDEVVDDFVVYADKETPIETILPAVDILITDYSSIPFEFALLEKPMIFFTYDLEEYDKARGLSDGFLATIPGPFVHTTEELIQLIEQEAFDLEMVRAFAAKWNKYSDGHSSERFVSFLKEQLEK | not soluble
MGSDKIHHHHHHMKFFNREKEIHKILSIIEGEPNLIYFIYGSINSGKTALINEIINNRLDKNKYIVFYFDLREIFISKYDDFIEVLFEEYEGDKSPIEVIKAIINDLPSLYGIPIPKNTLNEIFKKKTTKNVFRYITNVLMDIKREGKQPIIIIDELQKIGDMKINGFLIYELFNYFVSLTKHKHLCHVFCLSSDSLFIERVYNEAMLEDRVDYILVDDHRGGYAPSIGILPQIESGVAFGNPALEYSNRGFASMRGEYILVDDFDKETALKFMDFLAKENNMSLTNEDKELIYNYVGGKPVLIIKVIDKLRYENLNDILDFMLKDATQKLKYFLEDVKEEDEELYKKVVDALKLFKEDYEIEDIKIPKKIREFLIKRNILFLNPIEGILKPQSFLVWNAIKKVL | not soluble
